Assay results taken from patent US20190248900A1 (Y BIOLOGICS, published 2019).

T1: ITGA6-Fc
T1 construct: Fc fusion
T1 sequence (P23229 whole entry, species assumed, looked up): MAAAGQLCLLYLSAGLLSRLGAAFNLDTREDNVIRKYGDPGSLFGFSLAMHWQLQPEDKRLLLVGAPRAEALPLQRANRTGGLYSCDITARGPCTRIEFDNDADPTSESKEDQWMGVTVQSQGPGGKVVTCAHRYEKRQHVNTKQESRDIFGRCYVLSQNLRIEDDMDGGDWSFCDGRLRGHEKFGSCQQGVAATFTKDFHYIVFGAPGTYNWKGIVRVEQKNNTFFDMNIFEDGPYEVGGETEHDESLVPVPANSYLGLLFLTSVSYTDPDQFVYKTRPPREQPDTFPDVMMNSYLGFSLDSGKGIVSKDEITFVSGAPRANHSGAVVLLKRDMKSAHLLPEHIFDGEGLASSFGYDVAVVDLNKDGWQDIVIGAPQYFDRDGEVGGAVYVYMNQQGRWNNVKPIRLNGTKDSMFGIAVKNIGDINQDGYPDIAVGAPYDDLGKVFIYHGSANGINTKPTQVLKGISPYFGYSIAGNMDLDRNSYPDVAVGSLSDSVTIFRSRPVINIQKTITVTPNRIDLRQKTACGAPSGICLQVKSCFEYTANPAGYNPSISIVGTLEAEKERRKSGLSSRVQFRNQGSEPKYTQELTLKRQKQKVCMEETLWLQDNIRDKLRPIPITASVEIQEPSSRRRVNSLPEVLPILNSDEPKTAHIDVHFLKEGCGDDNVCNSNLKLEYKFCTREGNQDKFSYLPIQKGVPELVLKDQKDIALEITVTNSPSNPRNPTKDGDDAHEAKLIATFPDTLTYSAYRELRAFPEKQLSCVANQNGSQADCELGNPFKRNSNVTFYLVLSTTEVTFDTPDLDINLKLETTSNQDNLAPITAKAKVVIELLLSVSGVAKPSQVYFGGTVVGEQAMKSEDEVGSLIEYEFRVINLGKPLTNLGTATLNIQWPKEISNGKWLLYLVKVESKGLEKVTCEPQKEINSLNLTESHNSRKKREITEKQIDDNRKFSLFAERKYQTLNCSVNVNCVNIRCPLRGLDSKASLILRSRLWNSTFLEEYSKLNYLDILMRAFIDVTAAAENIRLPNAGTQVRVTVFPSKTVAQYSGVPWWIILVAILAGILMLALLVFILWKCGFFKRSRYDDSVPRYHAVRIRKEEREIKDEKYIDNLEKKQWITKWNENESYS

B1: PD1-45F4 (antibody, V domains shown)
VH: QMQLVESGGGLVQPGRSLRLSCAASGFTFDDYAMHWVRQAPGQGLEWVSGISWNSNNIKYADSVKGRFTISRDNSKNSLYLQMNSLRAEDTAVYYCARGALTPLDVWGQGTPVTVSS
VL: SYELTQAPSLSVSPGQTANIICSGDNLRTKYVSWYQQKPGQSPLLVIYQDTRRPSGIPARFSGSNSGNTATLTISGTQTRDESTYYCMTWDVDTTSMIFGGGTKLTVL
notes: scFv-phage in the screening ELISA; later whole IgG
B2: PD1-49B9 (antibody, V domains shown)
VH: QMQLVESGGGLVQPGRSLRLSCAASGFTFEDYAMHWVRQPPGKGLEWVSSISWNSHNIAYADSVKGRFTISRDNSKNSLYLQMNSLRAEDTAVYYCSTSGLGVHAWGQGTMVTVSS
VL: QSALTQPPSASGSPGQSVTISCTGTSSDVGGYNYVSWYQQHPGKAPKLMIYEVSKRPSGVPDRFSGSKSGNTASLTVSGLQPEDEADYYCSSFARNSNYVFGTGTKVTVL
notes: as for B1
B3: PD1-45D6(A/3H7) (antibody, V domains shown)
VH: QVQLVESGGGVVQPGRSLRLSCAASGFTFSSYAMHWVRQVPGKGLEWVAVISYDGNDKYYADSVKGRFTISRDNSKNTLYLQMNSLRAEDTAVYYCVPTTFEYWGQGSQVTVSS
VL: DIVMTQTPLSLPVTPGEPASISCRSSQSLLDSDDGNTYLDWYLQKPGQSPQLLIYTLSHRASGVPGRFSGSGSGTEFNLRISRVEAEDVGIYYCMQRVEFPFTFGQGTKLEIK
notes: scFv-phage in the screening ELISA; whole IgG in the other assays; also called 45D6-3H7; PD1 45D6 3H7
B4: PD1-48A9 (antibody, V domains shown)
VH: QMQLVQSGAEVKKPGSSVKVSCKASGDTFTRYIINWVRQAPGQGLEWMGRVIPTLGLTTYAQNFQDTVTIIADKSTNTAYMELKNLRSEDTAVYYCARGYGSGAFDIWGQGTMITVSS
VL: DIVMTQTPLSLPVTPGEPASISCRSSQSLLDSHDGNTYLDWYLQKPGQSPQLLIYTLSHRASGVPDRFSGSGSGTDFTLKISRVEAEDVGLYYCMQRIDFPYTFGQGTKVEIK
notes: scFv-phage in the screening ELISA; whole IgG in the other assays
B5: PD1-49A2(A/1B2) (antibody, V domains shown)
VH: QVQLVESGGGVVQPGRSLRLSCAASGFTFLRYAMHWVRQAPGKGLEWVAVISYDGQDKYYADSVKGRFTISRDNSKNTLYLQMNSLRAEDTAVYYCTTTTFDSWGRGTLVTVSS
VL: DIVMTQTPLSLPVTPGEPASISCRSSQSLLDSDDGNTYLDWYLQKPGQSPQLLIYTLSHRASGVPDRFSGSGSGTEFNLRISRVEAEDVGIYYCMQRVEFPFTFGQGTKLEIK
notes: scFv-phage in the screening ELISA; whole IgG in the other assays; also called 49A2-1B2; PD1 49A2 1B2
B6: PD1-45D6(A/3D2) (antibody, V domains shown)
VH: QVQLVESGGGVVQPGRSLRLSCAASGFTFSSYAMHWVRQVPGKGLEWVAVISYDGNDKYYADSVKGRFTISRDNSKNTLYLQMNSLRAEDTAVYYCVPTTFEYWGQGSQVTVSS
VL: DIVMTQTPLSLPVTPGEAASISCRSSQSLLDSEDGNTYLDWYLQKPGQSPQLLIYTLSHRASGVPDRFSGSGSGTDFTLKISRVEAEDVGIYYCMQRVEFPFTFGQGTKVEIK
notes: scFv-phage in the screening ELISA; whole IgG in the other assays; also called 45D6-3D2; PD1 45D6 3D2
B7: PD1-45D6(A/5B5) (antibody, V domains shown)
VH: QVQLVESGGGVVQPGRSLRLSCAASGFTFRTYAMHWVRQAPGKGLEWVAVISYDGNDKYYADSVKGRFTISRDNSKNTLYLQMNSLRAEDTAVYYCVPTTFEYWGQGTLVTVSS
VL: DIVMTQTPLSLPVMPGEAASISCRSSQSLLDSEDGNTYLDWYLQKPGQSPQLLIYTLSHRASGVPDRFSGSGSGTDFTLKISRVEADDVGIYYCMQRVEFPFTFGQGTKVEIK
notes: scFv-phage in the screening ELISA; whole IgG in the other assays; also called 45D6-5B5; PD1 45D6 5B5

Key:
[1] = biological target: T2, M7-1; assay: scFv-phage ELISA
T2 construct: also called PD1 mutant M7-1

[2] = biological target: T3, M3; assay: scFv-phage ELISA
T3 construct: also called PD1 mutant M3

[3] = biological target: T4, M9; assay: scFv-phage ELISA
T4 construct: also called PD1 mutant M9

[4] = biological target: T5, M7-2; assay: scFv-phage ELISA
T5 construct: also called PD1 mutant M7-2

[5] = biological target: T6, M10; assay: scFv-phage ELISA
T6 construct: also called PD1 mutant M10

[6] = biological target: T7, M6; assay: scFv-phage ELISA
T7 construct: also called PD1 mutant M6

[7] = biological target: T8, M11; assay: scFv-phage ELISA
T8 construct: also called PD1 mutant M11

[8] = biological target: T9, M1-1; assay: scFv-phage ELISA
T9 construct: also called PD1 mutant M1-1

[9] = biological target: T10, M12; assay: scFv-phage ELISA
T10 construct: also called PD1 mutant M12

[10] = biological target: T11, M13; assay: scFv-phage ELISA
T11 construct: also called PD1 mutant M13

[11] = biological target: T12, M2-2; assay: scFv-phage ELISA
T12 construct: also called PD1 mutant M2-2

[12] = biological target: T13, M7; assay: scFv-phage ELISA
T13 construct: also called PD1 mutant M7

[13] = biological target: T14, antigen PD1 (coated, construct not stated) (UniProt Q15116 25-170, limits assumed); assay: scFv-phage ELISA
T14 construct: also called PD1 antigen; PDCD1
T14 sequence (Q15116 25-170 limits assumed): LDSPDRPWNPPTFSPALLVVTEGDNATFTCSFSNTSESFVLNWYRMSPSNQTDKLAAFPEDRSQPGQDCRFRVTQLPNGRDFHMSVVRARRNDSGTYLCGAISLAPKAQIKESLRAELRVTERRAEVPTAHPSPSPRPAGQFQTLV

[14] = biological target: T15, M5-2; assay: scFv-phage ELISA
T15 construct: also called PD1 mutant M5-2

[15] = biological target: T16, M8; assay: scFv-phage ELISA
T16 construct: also called PD1 mutant M8

[16] = biological target: T17, M1; assay: scFv-phage ELISA
T17 construct: also called PD1 mutant M1

[17] = biological target: T18, M5; assay: scFv-phage ELISA
T18 construct: also called PD1 mutant M5

[18] = biological target: T19, M2-1; assay: scFv-phage ELISA
T19 construct: also called PD1 mutant M2-1

[19] = biological target: T1, ITGA6-Fc; assay: scFv-phage ELISA
[20] = biological target: T20, M5-1; assay: scFv-phage ELISA
T20 construct: also called PD1 mutant M5-1

[21] = biological target: T21, M4; assay: scFv-phage ELISA
T21 construct: also called PD1 mutant M4

[22] = biological target: T22, M2; assay: scFv-phage ELISA
T22 construct: also called PD1 mutant M2

[23] = biological target: T23, M1-2; assay: scFv-phage ELISA
T23 construct: also called PD1 mutant M1-2

[24] = biological target: T24, M14; assay: scFv-phage ELISA
T24 construct: also called PD1 mutant M14

[25] = biological target: T25, human PD-1 (NM_005018.2) over-expressed on cells (human, UniProt Q15116 25-288); assay: cell-based or functional assay
T25 sequence (Q15116 25-288): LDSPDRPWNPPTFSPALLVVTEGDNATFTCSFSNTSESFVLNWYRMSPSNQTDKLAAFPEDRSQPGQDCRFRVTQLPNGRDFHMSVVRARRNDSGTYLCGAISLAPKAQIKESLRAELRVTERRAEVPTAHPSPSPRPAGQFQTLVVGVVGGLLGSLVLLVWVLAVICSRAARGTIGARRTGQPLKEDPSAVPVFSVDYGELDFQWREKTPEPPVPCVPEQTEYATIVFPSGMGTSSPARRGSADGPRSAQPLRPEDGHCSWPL

[26] = biological target: T25, human PD-1 (NM_005018.2) over-expressed …; assay: cell-based or functional assay; remark: listed apart in the source
[27] = biological target: T26, PD1-hFc (human, UniProt Q15116 25-170); assay: SPR ProteOn XPR36, PD1-hFc immobilised, antibody as analyte
T26 construct: extracellular domain; also called PD1-hFc protein; Human PD-1-Fc (S1420, Y-Biologics)
T26 sequence (Q15116 other isoform, or with tags, fused parts or gaps limits assumed): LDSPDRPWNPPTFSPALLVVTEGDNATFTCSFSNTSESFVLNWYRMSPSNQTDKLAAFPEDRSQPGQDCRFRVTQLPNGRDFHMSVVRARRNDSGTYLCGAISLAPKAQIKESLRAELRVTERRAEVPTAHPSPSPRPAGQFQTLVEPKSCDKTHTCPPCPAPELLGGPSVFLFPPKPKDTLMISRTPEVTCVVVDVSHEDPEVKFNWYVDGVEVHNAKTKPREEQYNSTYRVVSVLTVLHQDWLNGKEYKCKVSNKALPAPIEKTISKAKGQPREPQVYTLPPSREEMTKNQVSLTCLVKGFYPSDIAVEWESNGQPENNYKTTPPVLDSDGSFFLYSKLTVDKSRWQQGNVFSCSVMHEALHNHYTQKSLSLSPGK
Protocol: A ProteOn XPR36 (BioRad) instrument was used. The GLC sensor chip (BioRad) was mounted on the instrument and washed with PBST buffer, and the carboxymethyldextran surface was activated with an EDC/sulfo-NHS mixed solution. PD1-hFc dissolved at a concentration of 5 ug/ml in a 10 mM sodium acetate buffer solution (pH 5.0) was injected and immobilized on the GLC sensor chip.
In order to deactivate the activated carboxyl groups that remain unreacted with the PD1 protein, 1 M ethanolamine was flowed and 10 mM glycine (pH 2.0) was injected in order to wash proteins that remain unbound to the sensor chip.
The equilibrium dissociation constant (KD) was calculated by plotting and fitting the sensogram data in the equilibrium state depending on concentration.

Binder	OD490 [1]	OD490 [2]	OD490 [3]	OD490 [4]	OD490 [5]	OD490 [6]	OD490 [7]	OD490 [8]	OD490 [9]	OD490 [10]	OD490 [11]	OD490 [12]	OD490 [13]	OD490 [14]	OD490 [15]	EC50 [25] [nM]	EC50 [nM], PD1/PD-L1 blockade bioassay [26] [nM]	Kd [27] [nM]	koff [27] [s⁻¹]	kon [27] [M⁻¹ s⁻¹]	further results
B1	3.5	3.7	3.3	3.4	3.3	3.7	0.3	2.5	3.7	3.5	2.5	3.5	3.8	3.1	3.6	–	–	–	–	–	OD490 [16]: 2.6; OD490 [17]: 0.1; OD490 [18]: 3; OD490 [19]: 0.1; OD490 [20]: 0.1; OD490 [21]: 2.7; OD490 [22]: 2.9; OD490 [23]: 3.6; OD490 [24]: 1.8
B2	3.9	3.9	3.9	3.9	3.9	3.9	1.4	3.8	3.9	3.9	3.9	3.9	3.9	4	4	–	–	–	–	–	OD490 [16]: 3.9; OD490 [17]: 3.9; OD490 [18]: 3.8; OD490 [19]: 0.3; OD490 [20]: 3.9; OD490 [21]: 3.8; OD490 [22]: 3.9; OD490 [23]: 3.9; OD490 [24]: 3.9
B3	–	–	–	–	–	–	–	–	–	–	–	–	–	–	–	1.64	1.98	0.0253	7.78e-06	308000	–
B4	0.4	2	3.9	0.4	3.8	3.9	0.3	3.8	3.9	4	3.9	0.3	2.1	3.9	1.7	–	8.64	–	–	–	OD490 [16]: 3.7; OD490 [17]: 1.3; OD490 [18]: 3.8; OD490 [19]: 0.3; OD490 [20]: 0.6; OD490 [21]: 3.9; OD490 [22]: 0.3; OD490 [23]: 3.9; OD490 [24]: 4
B5	–	–	–	–	–	–	–	–	–	–	–	–	–	–	–	2.03	1.3	0.166	6.39e-05	385000	–
B6	–	–	–	–	–	–	–	–	–	–	–	–	–	–	–	2	2.16	≤ 0.001	≤ 1e-07	181000	–
B7	–	–	–	–	–	–	–	–	–	–	–	–	–	–	–	0.906	1.68	0.0477	1.41e-05	296000	–
